Test [1] has as its target Canine_OSMR_hlgG1_Fc (canine). Put plainly: SPR Biacore, OSMR on chip.
Test [2] deals with Feline_OSMR_hlgG1_Fc (feline). As to the kind of experiment: SPR Biacore, OSMR on chip. On the technique in general: In SPR one partner is held on a chip, and binding of the other changes the refractive index at the surface.
Test [3] addresses Feline_OSMR_hlgG1_Fc (feline). Put plainly: indirect ELISA, fOSMR coated; OD ratio to antibody expression control.
Test [4] deals with Feline_OSMR_hlgG1_Fc (feline). Put plainly: SPR Biacore.
The target of test [5] is Canine_OSMR_hlgG1_Fc (canine). As to the kind of experiment: SPR Biacore.
Canine_OSMR_hlgG1_Fc (canine), sequence (chain, as listed by the source limits assumed, form in doubt): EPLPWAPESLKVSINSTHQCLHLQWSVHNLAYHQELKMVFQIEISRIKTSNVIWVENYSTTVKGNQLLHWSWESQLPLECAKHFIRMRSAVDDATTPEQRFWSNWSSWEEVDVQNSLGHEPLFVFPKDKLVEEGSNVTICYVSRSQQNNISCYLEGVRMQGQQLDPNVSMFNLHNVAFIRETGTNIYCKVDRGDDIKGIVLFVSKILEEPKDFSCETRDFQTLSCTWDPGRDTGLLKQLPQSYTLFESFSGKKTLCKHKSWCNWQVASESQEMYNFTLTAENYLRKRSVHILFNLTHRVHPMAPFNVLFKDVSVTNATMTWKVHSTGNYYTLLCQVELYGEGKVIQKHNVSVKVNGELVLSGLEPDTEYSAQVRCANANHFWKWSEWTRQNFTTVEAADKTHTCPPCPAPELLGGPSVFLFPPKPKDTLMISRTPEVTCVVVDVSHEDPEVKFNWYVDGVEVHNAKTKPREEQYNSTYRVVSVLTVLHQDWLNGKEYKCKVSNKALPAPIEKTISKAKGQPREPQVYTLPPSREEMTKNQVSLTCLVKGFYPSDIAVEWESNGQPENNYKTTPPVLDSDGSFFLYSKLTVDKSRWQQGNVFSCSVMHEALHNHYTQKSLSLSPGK

Feline_OSMR_hlgG1_Fc (feline), sequence (chain, as listed by the source limits assumed, form in doubt): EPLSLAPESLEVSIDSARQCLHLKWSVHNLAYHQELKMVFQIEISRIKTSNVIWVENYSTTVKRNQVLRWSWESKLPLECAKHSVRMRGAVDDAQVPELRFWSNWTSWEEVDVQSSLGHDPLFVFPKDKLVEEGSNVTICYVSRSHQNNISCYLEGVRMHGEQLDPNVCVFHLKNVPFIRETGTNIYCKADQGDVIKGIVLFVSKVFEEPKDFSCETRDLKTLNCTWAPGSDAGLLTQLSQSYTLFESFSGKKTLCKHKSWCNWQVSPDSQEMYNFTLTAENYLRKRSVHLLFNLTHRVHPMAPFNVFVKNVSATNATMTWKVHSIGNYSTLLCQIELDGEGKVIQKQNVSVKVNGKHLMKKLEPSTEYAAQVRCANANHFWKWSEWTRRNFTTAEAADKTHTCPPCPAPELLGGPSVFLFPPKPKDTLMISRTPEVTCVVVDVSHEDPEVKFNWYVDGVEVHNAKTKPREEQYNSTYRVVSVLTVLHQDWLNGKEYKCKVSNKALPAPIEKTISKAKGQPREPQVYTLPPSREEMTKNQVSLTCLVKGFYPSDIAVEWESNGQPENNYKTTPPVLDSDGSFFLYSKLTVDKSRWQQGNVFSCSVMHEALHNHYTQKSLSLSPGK

B1: Mu_14C04 (antibody, V domains shown)
VH: EVQLQESGAELVKPGASVKISCKASGYAFSNYWMNWMKQRPGKGLEWIGQIYPGHVNTNYNGNFKDKATLTADKSSSTAYMQLSSLTSEDSAVYFCARSADNSGFVLFAYWGQGTLVTVS
VL: DIVLTQSPASLAVSLGQRATISCRASKSVSTSGYSYLHWYQQKPGQPPKLLIFLASNLESGVPARFSGSGSGTDFTLNIHPVEEEDAATYYCQHSRELPLTFGAGTKLELK
As a reminder, the Kd is the constant that tells how readily two partners part at equilibrium. Higher therefore signals a looser complex. In turn, B1 registered a dissociation constant (Kd) in test [1] of 14.2 nM.

B2: Mu_09E09 (antibody, V domains shown)
VH: DVKLVESGEGLVKPGGSLKLSCAASGFTFSSYAMSWVRQTPEKRLEWVAYISSGGDYIYYADTVKGRFTISRDNARNTLYLQMSSLKSEDTAMYYCTRDPITGTFAYWGQGTLVTVSA
VL: DLQMTQTTSSLSASLGDRVTISCRASQDINNYLNWYQQKPDGTVKLLIYYTSTLHSGVPSRFSGSGSGTDYSLTISNLEQEDIATYFCQQGNTLPWTFGGGTKLEIK
In the case of B2, the figures for the Kd in test [2] and in test [1] were 3.75 nM and 7.87 nM, respectively.

B3: Mu_10F07_VL (SEQ ID NO: 41)_T97A (antibody, V domains shown)
VH: DVKLVESGEGLVKPGGSLKLSCAASGFTFSSYAMSWVRQTPEKRLEWVTYISSGGDYFYYADTVKGRFTISRDNARNTLYLQMSSLKSEDTAMYYCTRDPITGTFAYWGQGTLVTVSA
VL: DIQMTQTTSSLSASLGDRVTISCRASQDITNYLNWYQQKPDGTVKLLIYYTSTLHSGVPSRFSGSGSGTDFSLTISNLEQEDIATYFCQQGHMLPWAFGGGTKLEIKR
By koff is commonly meant the rate constant with which the complex falls apart. Low readings indicate a long-lived complex, high ones a short-lived complex. By kon is commonly meant the rate constant with which the complex forms. Read a high kon as faster complex formation. Consider B3, for which the ELISA ratio in test [3] turned out to be 0.298 OD ratio. In test [4], this molecule yielded a dissociation constant (Kd) of 1.63 nM, a koff of 0.000282 s⁻¹ and an on-rate (kon) of 172000 M⁻¹ s⁻¹. Further, in test [5], the dissociation constant (Kd) came to 5.32 nM, the koff worked out at 0.000219 s⁻¹ and the kon amounted to 41200 M⁻¹ s⁻¹.

B4: Mu_10F07_VL (SEQ ID NO: 41)_L33A (antibody, V domains shown)
VH: DVKLVESGEGLVKPGGSLKLSCAASGFTFSSYAMSWVRQTPEKRLEWVTYISSGGDYFYYADTVKGRFTISRDNARNTLYLQMSSLKSEDTAMYYCTRDPITGTFAYWGQGTLVTVSA
VL: DIQMTQTTSSLSASLGDRVTISCRASQDITNYANWYQQKPDGTVKLLIYYTSTLHSGVPSRFSGSGSGTDFSLTISNLEQEDIATYFCQQGHMLPWTFGGGTKLEIKR
With B4, the ELISA ratio in test [3] is 0.15 OD ratio. For the same molecule, in test [4], the Kd is 1.53 nM, the dissociation rate constant (koff) is 0.000274 s⁻¹ and the kon was found to be 179000 M⁻¹ s⁻¹. In test [5], the Kd came to 5.48 nM, the koff was 0.000222 s⁻¹ and the on-rate constant (kon) stood at 40500 M⁻¹ s⁻¹.

B5: Mu_10F07 (antibody, V domains shown)
VH: DVKLVESGEGLVKPGGSLKLSCAASGFTFSSYAMSWVRQTPEKRLEWVTYISSGGDYFYYADTVKGRFTISRDNARNTLYLQMSSLKSEDTAMYYCTRDPITGTFAYWGQGTLVTVSA
VL: DIQMTQTTSSLSASLGDRVTISCRASQDITNYLNWYQQKPDGTVKLLIYYTSTLHSGVPSRFSGSGSGTDFSLTISNLEQEDIATYFCQQGHMLPWTFGGGTKLEIK
Turning to B5, the results for the equilibrium dissociation constant (Kd) in test [2] and in test [1] were 1.59 nM and 2.03 nM, respectively.

B6: Mu_10F07_VH (SEQ ID NO: 39)_Y107A (antibody, V domains shown)
VH: DVKLVESGEGLVKPGGSLKLSCAASGFTFSSYAMSWVRQTPEKRLEWVTYISSGGDYFYYADTVKGRFTISRDNARNTLYLQMSSLKSEDTAMYYCTRDPITGTFAAWGQGTLVTVSA
VL: DIQMTQTTSSLSASLGDRVTISCRASQDITNYLNWYQQKPDGTVKLLIYYTSTLHSGVPSRFSGSGSGTDFSLTISNLEQEDIATYFCQQGHMLPWTFGGGTKLEIKR
Turning to B6, the ELISA ratio in test [3] is 0.375 OD ratio. In test [4], this molecule returned a Kd of 1.43 nM, a koff of 0.000247 s⁻¹ and an association rate constant (kon) of 173000 M⁻¹ s⁻¹. In test [5], this molecule registered a Kd of 1.69 nM, a koff of 6.76e-05 s⁻¹ and an on-rate constant (kon) of 40100 M⁻¹ s⁻¹.

B7: Mu_10F07_VH (SEQ ID NO: 39)_D99A (antibody, V domains shown)
VH: DVKLVESGEGLVKPGGSLKLSCAASGFTFSSYAMSWVRQTPEKRLEWVTYISSGGDYFYYADTVKGRFTISRDNARNTLYLQMSSLKSEDTAMYYCTRAPITGTFAYWGQGTLVTVSA
VL: DIQMTQTTSSLSASLGDRVTISCRASQDITNYLNWYQQKPDGTVKLLIYYTSTLHSGVPSRFSGSGSGTDFSLTISNLEQEDIATYFCQQGHMLPWTFGGGTKLEIKR
In the case of B7, the ELISA ratio in test [3] worked out at 0.545 OD ratio. In test [4], this molecule registered a Kd of 3.18 nM, a dissociation rate constant (koff) of 0.000704 s⁻¹ and a kon of 221000 M⁻¹ s⁻¹. In test [5], this molecule gave a Kd of 11.2 nM, a dissociation rate constant (koff) of 0.000576 s⁻¹ and an on-rate constant (kon) of 51600 M⁻¹ s⁻¹.

B8: Mu_10F07_VL (SEQ ID NO: 41)_W96A (antibody, V domains shown)
VH: DVKLVESGEGLVKPGGSLKLSCAASGFTFSSYAMSWVRQTPEKRLEWVTYISSGGDYFYYADTVKGRFTISRDNARNTLYLQMSSLKSEDTAMYYCTRDPITGTFAYWGQGTLVTVSA
VL: DIQMTQTTSSLSASLGDRVTISCRASQDITNYLNWYQQKPDGTVKLLIYYTSTLHSGVPSRFSGSGSGTDFSLTISNLEQEDIATYFCQQGHMLPATFGGGTKLEIKR
For B8, in test [3], the ELISA ratio came to 0.134 OD ratio. Further, in test [4], the Kd worked out at 7.03 nM, the koff was 0.00158 s⁻¹ and the kon amounted to 225000 M⁻¹ s⁻¹. In test [5], this molecule registered a Kd of 40 nM, a koff of 8.63 s⁻¹ and a kon of 2.16e+08 M⁻¹ s⁻¹.

B9: Mu_10F07_VL (SEQ ID NO: 41)_T53A (antibody, V domains shown)
VH: DVKLVESGEGLVKPGGSLKLSCAASGFTFSSYAMSWVRQTPEKRLEWVTYISSGGDYFYYADTVKGRFTISRDNARNTLYLQMSSLKSEDTAMYYCTRDPITGTFAYWGQGTLVTVSA
VL: DIQMTQTTSSLSASLGDRVTISCRASQDITNYLNWYQQKPDGTVKLLIYYTSALHSGVPSRFSGSGSGTDFSLTISNLEQEDIATYFCQQGHMLPWTFGGGTKLEIKR
As for B9, the ELISA ratio in test [3] stood at 0.217 OD ratio. In test [4], this molecule gave an equilibrium dissociation constant (Kd) of 1.83 nM, an off-rate (koff) of 0.000468 s⁻¹ and an on-rate constant (kon) of 255000 M⁻¹ s⁻¹. For the same molecule, in test [5], the dissociation constant Kd is 3.94 nM, the dissociation rate constant (koff) stood at 0.000256 s⁻¹ and the on-rate (kon) came out at 65000 M⁻¹ s⁻¹.

B10: Mu_02D09 (antibody, V domains shown)
VH: EVQLVESGGGLVKPGGSLTLSCAASGFTFSDYGMHWLRQAPEKGLEWVAYISSGSRAVFFADTVKGRFTISRDNAKNTLFLQMTSLRSDDTAMYYCARDRYDGRGFAYWGQGTLVTVSA
VL: DIVLTQSPATLSVTPGDSVSLSCRASQSISNNLHWYQQTSHESPRLLITYASQSISGIPSRFSGSGSGTDFTLSINSVETEDFGMYFCQQSNSWPLTFGAGTKLELK
In test [2], B10 came in with a Kd of 8.96 nM.

B11: Mu_02D09_VH (SEQ ID NO: 31)_Y32A (antibody, V domains shown)
VH: EVQLVESGGGLVKPGGSLTLSCAASGFTFSDAGMHWLRQAPEKGLEWVAYISSGSRAVFFADTVKGRFTISRDNAKNTLFLQMTSLRSDDTAMYYCARDRYDGRGFAYWGQGTLVTVSA
VL: DIVLTQSPATLSVTPGDSVSLSCRASQSISNNLHWYQQTSHESPRLLITYASQSISGIPSRFSGSGSGTDFTLSINSVETEDFGMYFCQQSNSWPLTFGAGTKLELKR
As for B11, the ELISA ratio in test [3] came out at 0.991 OD ratio. In test [4], this molecule came in with a Kd of 6.39 nM, an off-rate constant (koff) of 0.000765 s⁻¹ and an on-rate constant (kon) of 120000 M⁻¹ s⁻¹. In test [5], this molecule had a dissociation constant (Kd) of 34.8 nM, a koff of 0.0246 s⁻¹ and a kon of 707000 M⁻¹ s⁻¹.

B12: Mu_02D09_VL (SEQ ID NO: 33)_Q27A (antibody, V domains shown)
VH: EVQLVESGGGLVKPGGSLTLSCAASGFTFSDYGMHWLRQAPEKGLEWVAYISSGSRAVFFADTVKGRFTISRDNAKNTLFLQMTSLRSDDTAMYYCARDRYDGRGFAYWGQGTLVTVSA
VL: DIVLTQSPATLSVTPGDSVSLSCRASASISNNLHWYQQTSHESPRLLITYASQSISGIPSRFSGSGSGTDFTLSINSVETEDFGMYFCQQSNSWPLTFGAGTKLELKR
For the molecule B12, in test [3], the ELISA ratio was 0.025 OD ratio. In test [4], the equilibrium dissociation constant (Kd) worked out at 7.57 nM, the koff was 0.00109 s⁻¹ and the kon is 144000 M⁻¹ s⁻¹. Also, in test [5], the Kd worked out at 35 nM, the off-rate (koff) is 0.00441 s⁻¹ and the kon was found to be 126000 M⁻¹ s⁻¹.

B13: Mu_02D09_VL (SEQ ID NO: 33)_S56A (antibody, V domains shown)
VH: EVQLVESGGGLVKPGGSLTLSCAASGFTFSDYGMHWLRQAPEKGLEWVAYISSGSRAVFFADTVKGRFTISRDNAKNTLFLQMTSLRSDDTAMYYCARDRYDGRGFAYWGQGTLVTVSA
VL: DIVLTQSPATLSVTPGDSVSLSCRASQSISNNLHWYQQTSHESPRLLITYASQSIAGIPSRFSGSGSGTDFTLSINSVETEDFGMYFCQQSNSWPLTFGAGTKLELKR
Regarding B13, in test [3], the ELISA ratio came to 0 OD ratio. Also, in test [4], the Kd was determined as 9.3 nM, the off-rate (koff) came out at 0.00107 s⁻¹ and the on-rate (kon) stood at 116000 M⁻¹ s⁻¹. In test [5], this molecule displayed a Kd of 159 nM, an off-rate constant (koff) of 0.00653 s⁻¹ and a kon of 41200 M⁻¹ s⁻¹.

B14: Mu_02D09_VH (SEQ ID NO: 31)_D31A (antibody, V domains shown)
VH: EVQLVESGGGLVKPGGSLTLSCAASGFTFSAYGMHWLRQAPEKGLEWVAYISSGSRAVFFADTVKGRFTISRDNAKNTLFLQMTSLRSDDTAMYYCARDRYDGRGFAYWGQGTLVTVSA
VL: DIVLTQSPATLSVTPGDSVSLSCRASQSISNNLHWYQQTSHESPRLLITYASQSISGIPSRFSGSGSGTDFTLSINSVETEDFGMYFCQQSNSWPLTFGAGTKLELKR
Consider B14, for which the ELISA ratio in test [3] was 0.159 OD ratio. Further, in test [4], the dissociation constant Kd stood at 0.767 nM, the off-rate (koff) is 0.000872 s⁻¹ and the on-rate (kon) was found to be 1.14e+06 M⁻¹ s⁻¹. Further, in test [5], the Kd came out at 3.92 nM, the koff was determined as 0.00356 s⁻¹ and the kon is 908000 M⁻¹ s⁻¹.

B15: Mu_19F07 (antibody, V domains shown)
VH: EVKLVESEGGLVQPGSSMKLSCTASGFTFSDYYMAWVRQVPEKGLEWVANINYDGSSTYYLDSLKSRFIISRDNAKNILYLQMSSLKSEDTATYYCARGLTWDFDVWGTGTTVTVSS
VL: DIVMTQSHKFMSPSVGDRVSITCKASQDVDTAVAWYQQKPGQSPKLLIYLASTRHTGVPDRFTGSGSGTDFTLTISNVQSEDLADYFCQQYSRFPLTFGAGTKLELK
Consider B15, for which the values for the Kd in test [2] and in test [1] were 0.0207 nM and 0.951 nM, respectively.

Source of the values: US20220177594A1.
